This assay deals with AC133-positive and CD3-positive cells (target of the printed Kd not stated). In words: flow cytometry on cells, MFI against antibody concentration, detected with anti-c-Myc mAb and PE anti-mouse F(ab')2; target cell line for this Kd not stated.

B1: AC133xCD3-diabody (bispecific single-chain antibody, VHAC133-G4S Linker-VLCD3-(G4S)3 Linker-VHCD3-G4S Linker-VLAC133) (bispecific antibody)
chain: QVQLQQSGAELVRPGASVKLSCKASGYTFSDFEMHWVKQTPVHGLEWIGDIDPGTGDTAYNLKFKGKATLTTDKSSSTAYMELRSLTSEDSAVYYCTLGAFVYWGQGTLVTVSGGGGSDIQMTQSPSSLSASVGDRVTITCRASQDIRNYLNWYQQKPGKAPKLLIYYTSRLESGVPSRFSGSGSGTDYTLTISSLQPEDFATYYCQQGNTLPWTFGQGTKVEIKGGGGSGGGGSGGGGSEVQLVESGGGLVQPGGSLRLSCAASGYSFTGYTMNWVRQAPGKGLEWVALINPYKGVSTYNQKFKDRFTISVDKSKNTAYLQMNSLRAEDTAVYYCARSGYYGDSDWYFDVWGQGTLVTVSSGGGGSDVVVTQTPLSLPVSFGDQVSISCRSSQSLANSYGNTYLSWYLHKPGQSPQLLIYGISNRFSGVPDRFSGSGSGTDFTLKISTIKPEDLGMYYCLQGTHQPYTFGGGTKLEIKRADAAA
The molecule B1 came in with a Kd of 6.4 nM.

These data come from patent EP2769989A1.
